Test results as given in FireProtDB (doi:10.1021/bi801431x).
Values joined by “and” are separate entries in the source; they are usually repeats but may differ in a detail not shown here. Identical values can stand only once.

B1: Aspartate aminotransferase, P00509 (parent)
chain: MFENITAAPADPILGLADLFRADERPGKINLGIGVYKDETGKTPVLTSVKKAEQYLLENETTKNYLGIDGIPEFGRCTQELLFGKGSALINDKRARTAQTPGGTGALRVAADFLAKNTSVKRVWVSNPSWPNHKSVFNSAGLEVREYAYYDAENHTLDFDALINSLNEAQAGDVVLFHGCCHNPTGIDPTLEQWQTLAQLSVEKGWLPLFDFAYQGFARGLEEDAEGLRAFAAMHKELIVASSYSKNFGLYNERVGACTLVAADSETVDRAFSQMKAAIRANYSNPPAHGASVVATILSNDALRAIWEQELTDMRQRIQRMRQLFVNTLQEKGANRDFSFIIKQNGMFSFSGLTKEQVLRLREEFGVYAVASGRVNVAGMTPDNMAPLCEAIVAVL

Variants of: B1
Details: Escherichia coli (strain K12); pH 7.5; 25 °C; Urea; Fluorescence; Potassium phosphate 20 mM; reversible: Yes; structure 1AMQ; whole UniProt chain shown

For I5A, the “ddG of mutation (higher = less stable)” value was 4.9 kcal/mol and 5.1 kcal/mol and the “denaturant midpoint (higher = more stable)” value (from here on “denaturant midpoint”) was 2.81 M and 2.74 M and 5.2 M.

With N282R the “ddG of mutation (higher = less stable)” value was 2.6 kcal/mol and the “denaturant midpoint” value was 3.3 M and 5.17 M.

For N282D, the “ddG of mutation (higher = less stable)” value was -0.8 kcal/mol and the “denaturant midpoint” value was 4.15 M and 4.9 M and 5.13 M.

With R254K the “ddG of mutation (higher = less stable)” value was 7.6 kcal/mol and 5 kcal/mol.

In the case of R254M, the “ddG of mutation (higher = less stable)” value is reported as 3.8 kcal/mol and 3.4 kcal/mol and the “denaturant midpoint” value is reported as 3.06 M and 3.12 M and 5.19 M.

In the case of D11A, the “ddG of mutation (higher = less stable)” value is reported as 5.9 kcal/mol and 5.1 kcal/mol.

With E3A the “ddG of mutation (higher = less stable)” value was 3.8 kcal/mol and 3 kcal/mol.

In the case of F2A, the “ddG of mutation (higher = less stable)” value is reported as 7.3 kcal/mol and 7.4 kcal/mol and the “denaturant midpoint” value is reported as 2.28 M and 4.26 M and 5.09 M.

In the case of N285R, the “ddG of mutation (higher = less stable)” value is reported as 4.4 kcal/mol and 5.9 kcal/mol and the “denaturant midpoint” value is reported as 2.91 M and 2.66 M and 4.24 M.

With K63M E253Q the “ddG of mutation (higher = less stable)” value was 5.3 kcal/mol and 4.6 kcal/mol.

For E253Q, the “ddG of mutation (higher = less stable)” value was 6.3 kcal/mol and 5.4 kcal/mol.

For E253K, the “ddG of mutation (higher = less stable)” value was 7.6 kcal/mol and 7.1 kcal/mol.

In the case of T6A, the “ddG of mutation (higher = less stable)” value is reported as 1.3 kcal/mol and the “denaturant midpoint” value is reported as 3.62 M and 4.77 M.

With K63M the “ddG of mutation (higher = less stable)” value was 5.4 kcal/mol and 4.7 kcal/mol and the “denaturant midpoint” value was 2.71 M and 2.81 M and 4.29 M.

For K63E, the “ddG of mutation (higher = less stable)” value was 4.5 kcal/mol and the “denaturant midpoint” value was 2.93 M and 3.9 M and 5.01 M.

In the case of K63E E253K, the “ddG of mutation (higher = less stable)” value is reported as 6.7 kcal/mol and 6.5 kcal/mol.
